Biological target: CyRPA (D29-E362; S147A, T324A, T340A) (Plasmodium falciparum 3D7, UniProt Q8IFM8 29-362, S147A | T324A | T340A)
Test: gel electrophoresis
Details: both partners purified

B1: RH5.1 (E26-Q526; T40A, T216A, T286A, T299A) (natural protein)
chain: ENAIKKTKNQENNLALLPIKSTEEEKDDIKNGKDIKKEIDNDKENIKTNNAKDHSTYIKSYLNTNVNDGLKYLFIPSHNSFIKKYSVFNQINDGMLLNEKNDVKNNEDYKNVDYKNVNFLQYHFKELSNYNIANSIDILQEKEGHLDFVIIPHYTFLDYYKHLSYNSIYHKSSTYGKCIAVDAFIKKINEAYDKVKSKCNDIKNDLIATIKKLEHPYDINNKNDDSYRYDISEEIDDKSEETDDETEEVEDSIQDTDSNHAPSNKKKNDLMNRAFKKMMDEYNTKKKKLIKCIKNHENDFNKICMDMKNYGTNLFEQLSCYNNNFCNTNGIRYHYDEYIHKLILSVKSKNLNKDLSDMTNILQQSELLLTNLNKKMGSYIYIDTIKFIHKEMKHIFNRIEYHTKIINDKTKIIQDKIKLNIWRTFQKDELLKRILDMSNEYSLFITSDHLRQMLYNTFYSKEKHLNNIFHHLIYVLQMKFNDVPIKMEYFQTYKKNKPLTQ
- binding result: binds
